US20190284272A1 (published 2019)

T1: canine IL-31 protein (Canine_IL31)
T1 chain: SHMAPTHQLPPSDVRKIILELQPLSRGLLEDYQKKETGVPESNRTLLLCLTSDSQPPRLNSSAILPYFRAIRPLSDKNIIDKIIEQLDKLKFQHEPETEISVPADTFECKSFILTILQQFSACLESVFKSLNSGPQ

T2: canine IL-31 protein (Canine_IL31) (canine)
T2 chain: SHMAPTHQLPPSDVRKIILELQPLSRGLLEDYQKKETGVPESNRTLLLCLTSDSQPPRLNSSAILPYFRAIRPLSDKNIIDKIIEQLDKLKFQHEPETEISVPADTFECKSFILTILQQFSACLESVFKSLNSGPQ


Columns and labels:
[1] = biological target: T1, canine IL-31 protein (Canine_IL31); test: Biacore
[2] = biological target: T2, canine IL-31 protein (Canine_IL31); test: cell-based or functional assay
[3] = biological target: T2, canine IL-31 protein (Canine_IL31); test: cell-based or functional assay
[4] = biological target: T2, canine IL-31 protein (Canine_IL31); test: SPR (Biacore), IL-31 protein as surface
Procedure: (§1) The affinity with which candidate mAbs bind canine and feline IL-31 was determined using surface plasmon resonance (SPR) on a Biacore system (Biocore Life Sciences (GE Healthcare), Uppsala, Sweden). To avoid affinity differences associated with differential surface preparation that can occur when immobilizing antibodies to surfaces; a strategy was employed where IL-31 was directly conjugated to the surface. Immobilization was obtained by amine coupling 5 μg/mL IL-31 using N-hydroxysuccinimide (NHS)/1-Ethyl-3-(3-dimethylaminopropyl) carbodiimide (EDC) chemistry. Chips were quenched with ethanolamine and the affinity with which all candidate mAbs bound to the immobilized IL-31 was evaluated. All curves were fit to a 1:1 model. […] Results for affinity measurements are described herein.
Table 1 below describes the results for biacore analysis using multiple species of IL-31 protein as a surface capture.

[5] = biological target: T2, canine IL-31 protein (Canine_IL31); test: SPR (Biacore), FIG. 2 Section B
Procedure: as §1
FIG. 2 details the affinity of antibodies with CDRs derived from mouse origin using biacore. […] These observations confirm the correct sequence for both mouse antibodies and indicate conversion to the chimeric form results in antibodies with equivalent or higher affinity when compared to the mouse parent with the exception of the mouse:feline 15H05 chimera which lost some affinity to both IL-31 species as a result of its conversion to the chimeric form. […]

[6] = biological target: T2, canine IL-31 protein (Canine_IL31); test: Biacore, canine IL-31 surface, single antibody concentration (FIG. 4)
Procedure: as §1
For the indirect ELISA method, antibody binding to wildtype and feline IL-31 15H05 mutant proteins was assessed. All nine canine monoclonal antibodies (ZIL1, ZIL8, ZIL8, ZIL11, ZIL69, ZIL94, ZIL154, ZIL159, and ZIL171) were capable of binding to wildtype feline IL-31 and binding was impacted by mutations in the mAb 15H05 epitope region confirming the correct binding phenotype determined during the initial screening used to identify them. […]

| Binder | Inhibition of IL-31 induced pSTAT3 IC50 (µg/ml), Canine IL-31 on Canine DH82 cells [3] | Kd [4] | also measured |
| --- | --- | --- | --- |
| mouse: feline 15H05 chimera (antibody) heavy: QVQLQQSAAELARPGASVKMSCKTSGYTFTSYTIHWIKQRPGQGLEWIGNINPTSGYTENNQRFKDKTTLTVDRSSNTAYLQLHSLTSEDSAVYFCARWGFKYDGEWSFDVWGAGTTVTVSSASTTAPSVFPLAPSCGTTSGATVALACLVLGYFPEPVTVSWNSGALTSGVHTFPAVLQASGLYSLSSMVTVPSSRWLSDTFTCNVAHPPSNTKVDKTVRKTDHPPGPKPCDCPKCPPPEAAGAPSIFIFPPKPKDTLSISRTPEVTCLVVDLGPDDSDVQITWFVDNTQVYTAKTSPREEQFNSTYRVVSVLPILHQDWLKGKEFKCKVNSKSLPSPIERTISKAKGQPHEPQVYVLPPAQEELSRNKVSVTCLIKSFHPPDIAVEWEITGQPEPENNYRTTPPQLDSDGTYFVYSKLSVDRSHWQRGNTYTCSVSHEALHSHHTQKSLTQSPGK light: DIQMNQSPSSLSASLGDTITVTCRASQGISIWLSWYQQKPGNIPKVLINKASNLHIGVPPRFSGSGSGTHFTLTITSLQPEDIATYYCLQSQTYPLTFGGGTKLEINRSDAQPSVFLFQPSLDELHTGSASIVCILNDFYPKEVNVKWKVDGVVQNKGIQESTTEQNSKDSTYSLSSTLTMSSTEYQSHEKFSCEVTHKSLASTLVKSFQRSECQRE |  |  | Kd [1]: 12.9 pM; IC50 against canine IL-31 (pSTAT3 assay; cell type not clear) [2]: 28.6 µg/ml |
| mouse anti IL-31 antibody 15H05 (antibody, mouse IgG1, kappa, Mouse hybridoma antibody, mouse IgG1 heavy and mouse kappa light constant regions; also called Mu-15H05; MU-15H05) heavy: QVQLQQSAAELARPGASVKMSCKTSGYTFTSYTIHWIKQRPGQGLEWIGNINPTSGYTENNQRFKDKTTLTVDRSSNTAYLQLHSLTSEDSAVYFCARWGFKYDGEWSFDVWGAGTTVTVSSKTTPPSVYPLAPGSAAQTNSMVTLGCLVKGYFPEPVTVTWNSGSLSSGVHTFPAVLESDLYTLSSSVTVPSSPRPSETVTCNVAHPASSTKVDKKIVPRDCGCKPCICTVPEVSSVFIFPPKPKDVLTITLTPKVTCVVVDISKDDPEVQFSWFVDDVEVHTAQTQPREEQFNSTFRSVSELPIMHQDWLNGKEFKCRVNSAAFPAPIEKTISKTKGRPKAPQVYTIPPPKEQMAKDKVSLTCMITDFFPEDITVEWQWNGQPAENYKNTQPIMNTNGSYFVYSKLNVQKSNWEAGNTFTCSVLHEGLHNHHTEKSLSHSPGK light: DIQMNQSPSSLSASLGDTITVTCRASQGISIWLSWYQQKPGNIPKVLINKASNLHIGVPPRFSGSGSGTHFTLTITSLQPEDIATYYCLQSQTYPLTFGGGTKLEINADAAPTVSIFPPSSEQLTSGGASVVCFLNNFYPKDINVKWKIDGSERQNGVLNSWTDQDSKDSTYSMSSTLTLTKDEYERHNSYTCEATHKTSTSPIVKSFNRNEC | 11.2 µg/ml | 1.91 pM | Kd [1]: 4.87 pM |
| Feline 11E12 1.2 (antibody, V domains shown, also called felinized 11E12 1.2) VH: QVLLVQSGAEVKKPGASVKIFCKASGYSFTYYDINWLRQAPEQGLEWMGWIFPGDGGTKYNETFKGRLTLTADTSTNTVYMELSSLRSADTAMYYCARGGTSVIRDAMDYWGQGALVTVSS VL: EVVLTQSSAFLSRTLKEKATITCRASESVDNYGISFMHWYQQKPNQAPKLLVKRASNLESGAPSRFSGSGSGTDFTLTISSPEPEDAATYYCQQSNKDPLTFGQGT |  |  | binding result [5]: no binding |
| 15H05 mouse: canine chimera (antibody) heavy: QVQLQQSAAELARPGASVKMSCKTSGYTFTSYTIHWIKQRPGQGLEWIGNINPTSGYTENNQRFKDKTTLTVDRSSNTAYLQLHSLTSEDSAVYFCARWGFKYDGEWSFDVWGAGTTVTVSSASTTAPSVFPLAPSCGSTSGSTVALACLVSGYFPEPVTVSWNSGSLTSGVHTFPSVLQSSGLYSLSSMVTVPSSRWPSETFTCNVAHPASKTKVDKPVPKRENGRVPRPPDCPKCPAPEMLGGPSVFIFPPKPKDTLLIARTPEVTCVVVDLDPEDPEVQISWFVDGKQMQTAKTQPREEQFNGTYRVVSVLPIGHQDWLKGKQFTCKVNNKALPSPIERTISKARGQAHQPSVYVLPPSREELSKNTVSLTCLIKDFFPPDIDVEWQSNGQQEPESKYRTTPPQLDEDGSYFLYSKLSVDKSRWQRGDTFICAVMHEALHNHYTQESLSHSPGK light: DIQMNQSPSSLSASLGDTITVTCRASQGISIWLSWYQQKPGNIPKVLINKASNLHIGVPPRFSGSGSGTHFTLTITSLQPEDIATYYCLQSQTYPLTFGGGTKLEINRNDAQPAVYLFQPSPDQLHTGSASVVCLLNSFYPKDINVKWKVDGVIQDTGIQESVTEQDKDSTYSLSSTLTMSSTEYLSHELYSCEITHKSLPSTLIKSFQRSEC |  |  | IC50 against canine IL-31 (pSTAT3 assay; cell type not clear) [2]: 12.5 µg/ml |
| ZTS-361 (antibody, Felinized 15H05 1.1 FW2, effector-null feline heavy constant region) heavy: QVLLVQSGAEVRTPGASVKIFCKASGYSFTSYTIHWLRQAPAQGLEWMGNINPTSGYTENNQRFKDRLTLTADTSTNTAYMELSSLRSADTAMYYCARWGFKYDGEWSFDVWGAGTTVTVSSASTTAPSVFPLAPSCGTTSGATVALACLVLGYFPEPVTVSWNSGALTSGVHTFPAVLQASGLYSLSSMVTVPSSRWLSDTFTCNVAHPPSNTKVDKTVRKTDHPPGPKPCDCPKCPPPEAAGAPSIFIFPPKPKDTLSISRTPEVTCLVVDLGPDDSDVQITWFVDNTQVYTAKTSPREEQFNSTYRVVSVLPILHQDWLKGKEFKCKVNSKSLPSPIERTISKAKGQPHEPQVYVLPPAQEELSRNKVSVTCLIKSFHPPDIAVEWEITGQPEPENNYRTTPPQLDSDGTYFVYSKLSVDRSHWQRGNTYTCSVSHEALHSHHTQKSLTQSPGK light: EIQMTQSPSSLSASPGDRVTITCRASQGISIWLSWYQQKPGNIPKVLINKASNLHIGVPSRFSGSGSGTDFTLTISSLEPEDAATYYCLQSQTYPLTFGGGTKLEIKRSDAQPSVFLFQPSLDELHTGSASIVCILNDFYPKEVNVKWKVDGVVQNKGIQESTTEQNSKDSTYSLSSTLTMSSTEYQSHEKFSCEVTHKSLASTLVKSFQRSECQRE | 23 µg/ml | 2.41 pM |  |
| ZTS-1505 (antibody, also called ZT-1 505) heavy: QVLLVQSGAEVRTPGASVKIFCKASGYSFTSYTIHWLRQAPAQGLEWMGNINPTSGYTENNQRFKDRLTLTADTSTNTAYMELSSLRSADTAMYYCARWGFKYDGEWSFDVWGAGTTVTVSSASTTAPSVFPLAPSCGTTSGATVALACLVLGYFPEPVTVSWNSGALTSGVHTFPAVLQASGLYSLSSMVTVPSSRWLSDTFTCNVAHPPSNTKVDKTVRKTDHPPGPKPCDCPKCPPPEAAGAPSIFIFPPKPKDTLSISRTPEVTCLVVDLGPDDSDVQITWFVDNTQVYTAKTSPREEQFNSTYRVVSVLPILHQDWLKGKEFKCKVNSKSLPSPIERTISKAKGQPHEPQVYVLPPAQEELSRNKVSVTCLIKSFHPPDIAVEWEITGQPEPENNYRTTPPQLDSDGTYFVYSKLSVDRSHWQRGNTYTCSVSHEALHSHHTQKSLTQSPGK light: EIQMTQSPSSLSASPGDRVTITCRASQGISIWLSWYQQKPGNIPKVLINKASNLHIGVPSRFSGSGSGTDFTLTISSLEPEDAATYYCLQSQTYPLTFGGGTKLEIKRSDAQPSVFLFQPSLDELHTGSASIVCILNDFYPKEVNVKWKVDGVVQNKGIQESTTEQNSKDSTYSLSSTLTMSSTEYQSHEKFSCEVTHKSLASTLVKSFQRSEC | 21.8 µg/ml | 1.83 pM |  |
| ZIL154 (antibody, V domains shown, Recombinant fully canine IgG (65_1), HEK 293; also called CAN-ZIL154) VH: EVHLVESGGDLVKPWGSLRLSCVASGFTFSDRGMSWVRQSPGKGLQWVAYIRYDGSRTDYADAVEGRFTISRDNAKNTLYLQMNSLRAEDTAVYYCARWDGSSFDYWGQGTLVTVSS VL: DIVVTQTPLSLSVSPGETASFSCKASQSLLHSDGNTYLDWFRQKPGQSPQRLIYKVSNRDPGVPDRFSGSGSGTDFTLRISGVEADDAGLYYCMQAIHFPLTFGAGTKVELKR |  |  | binding result [6]: no binding |
